What was measured:
[1] = target: poliovirus receptor-related 4 (ovis aries Nectin-4), Nectin 4-Myc (ovis aries); assay: co-IP
[2] = target: Peste-des-petits-ruminants virus haemagglutinin (H) protein of the Nigeria 75/1 strain, Hv-HA (Peste-des-petits-ruminants virus, strain Nigeria 75/1); assay: SPR
[3] = target: Peste-des-petits-ruminants virus haemagglutinin (H) protein of the Nigeria 75/1 strain, Hv-HA (Peste-des-petits-ruminants virus, strain Nigeria 75/1); assay: co-IP

| Substance | calibrated ratio of co-IP (percent of Hv and Nectin 4) [1] | Kd [2] | koff [2] | kon [2] | calibrated ratio of co-IP (percent of Hv and Nectin 4) [3] |
| --- | --- | --- | --- | --- | --- |
| Peste-des-petits-ruminants virus haemagglutinin (H) protein of the Nigeria 75/1 strain, Hv-HA (natural protein) | 100% |  |  |  |  |
| poliovirus receptor-related 4 (ovis aries Nectin-4), Nectin 4-Myc |  | 306 nM | 0.000435 s⁻¹ | 1420 M⁻¹ s⁻¹ | 100% |

— article PMC7416607
